Key:
[1] = target: human IgE (SUS-11 IgE) (human) (UniProt P01854); experiment: SPR (BIAcore), IgE amine-coupled to CM5 chip, monophasic model
[2] = target: human IgE (SUS-11 IgE) (human) (UniProt P01854); experiment: competition ELISA: SUS-11 IgE (1 µg/ml) pre-incubated with the antibody, captured on anti-IgE Le27; blocked ligand is HRP-labeled FcεRIα-HSA-FcεRIα (DFP); binding without competitor = 100 %

UniProt P01854, sequence (P01854 other isoform, or with tags, fused parts or gaps): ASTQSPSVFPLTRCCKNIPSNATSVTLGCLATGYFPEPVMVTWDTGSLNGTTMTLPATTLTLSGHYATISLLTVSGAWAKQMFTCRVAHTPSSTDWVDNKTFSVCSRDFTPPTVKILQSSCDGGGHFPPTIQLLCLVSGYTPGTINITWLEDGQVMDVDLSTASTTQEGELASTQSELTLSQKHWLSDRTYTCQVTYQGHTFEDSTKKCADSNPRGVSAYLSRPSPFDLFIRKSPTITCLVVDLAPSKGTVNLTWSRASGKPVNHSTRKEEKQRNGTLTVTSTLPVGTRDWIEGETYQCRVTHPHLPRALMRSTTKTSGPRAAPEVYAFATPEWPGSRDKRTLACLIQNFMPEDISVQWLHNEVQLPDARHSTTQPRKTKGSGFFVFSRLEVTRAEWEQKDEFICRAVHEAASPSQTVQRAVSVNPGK

BSW17, mouse monoclonal anti-human IgE antibody (hybridoma ECACC 96121916)
Kd [1]: 0.53 nM | koff [1]: 4.2e-06 s⁻¹ | kon [1]: 8000 M⁻¹ s⁻¹ | IC50 (read off the curve) [2]: 0.4 µg/mL

— patent US7041288
